Values belong to the molecule of their own block, whether it stands above or below them.
Columns and labels:
[1] = biological target: T1, CD74 (human, UniProt P04233 1-296); test: cell binding to antigen-positive cells (cell line not stated)
T1 construct: whole, on cells; Endogenous antigen of human tumor cell lines; measured on the surface or, after permeabilization, surface and cytoplasmic; also called invariant chain; Ii
T1 sequence (looked up): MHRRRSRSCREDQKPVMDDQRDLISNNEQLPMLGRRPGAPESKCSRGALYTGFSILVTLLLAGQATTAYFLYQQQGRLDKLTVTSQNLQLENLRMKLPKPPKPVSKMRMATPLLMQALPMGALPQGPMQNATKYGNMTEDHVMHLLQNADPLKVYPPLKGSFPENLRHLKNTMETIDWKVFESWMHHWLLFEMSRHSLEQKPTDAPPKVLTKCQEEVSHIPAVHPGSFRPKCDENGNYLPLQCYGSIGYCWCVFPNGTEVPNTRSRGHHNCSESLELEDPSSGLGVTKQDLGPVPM

[2] = biological target: T1, CD74; test: cell-based or functional assay
[3] = biological target: CD22 (human) (UniProt P20273); test: cell-based or functional assay
[4] = biological target: T1, CD74; test: flow cytometry, surface CD74 on HuH-7 cells
[5] = biological target: T1, CD74; test: flow cytometry, surface and cytoplasmic CD74 in permeabilized HuH-7 cells
[6] = biological target: T1, CD74; test: flow cytometry, surface and cytoplasmic CD74 in permeabilized A-375 cells
[7] = biological target: T1, CD74; test: flow cytometry, surface and cytoplasmic CD74 in permeabilized Raji cells
[8] = biological target: T1, CD74; test: flow cytometry, surface and cytoplasmic CD74 in permeabilized Hs746T cells
[9] = biological target: T1, CD74; test: flow cytometry, surface CD74 on Raji cells
[10] = biological target: T1, CD74; test: flow cytometry, surface CD74 on Capan-1 cells
[11] = biological target: T1, CD74; test: flow cytometry, surface and cytoplasmic CD74 in permeabilized NCI-N87 cells
[12] = biological target: T1, CD74; test: flow cytometry, surface CD74 on Hep-G2 cells
[13] = biological target: T1, CD74; test: flow cytometry, surface and cytoplasmic CD74 in permeabilized Capan-1 cells
[14] = biological target: T1, CD74; test: flow cytometry, surface CD74 on NCI-N87 cells
[15] = biological target: T1, CD74; test: flow cytometry, surface CD74 on Hs746T cells
[16] = biological target: T1, CD74; test: flow cytometry, surface CD74 on A-375 cells
[17] = biological target: T1, CD74; test: flow cytometry, surface and cytoplasmic CD74 in permeabilized Hep-G2 cells
[18] = biological target: Human trophoblast cell-surface antigen (TROP-2) (human) (UniProt P09758); test: cell binding assay on TROP-2-expressing cells
[19] = biological target: Human trophoblast cell-surface antigen (TROP-2) (human) (UniProt P09758); test: cell-based or functional assay
[20] = biological target: Human trophoblast cell-surface antigen (TROP-2) (human) (UniProt P09758); test: FACS on BxPC-3 cells; background 3.1
[21] = biological target: Human trophoblast cell-surface antigen (TROP-2) (human) (UniProt P09758); test: FACS on SK-MES-1 cells
[22] = biological target: Human trophoblast cell-surface antigen (TROP-2) (human) (UniProt P09758); test: FACS on Capan-1 cells; background 5.0
[23] = biological target: Human trophoblast cell-surface antigen (TROP-2) (human) (UniProt P09758); test: FACS on Calu-3 cells
[24] = biological target: Human trophoblast cell-surface antigen (TROP-2) (human) (UniProt P09758); test: FACS on SK-MES-1 cells; background 3.5
[25] = biological target: Human trophoblast cell-surface antigen (TROP-2) (human) (UniProt P09758); test: FACS on PC-3 cells
[26] = biological target: Human trophoblast cell-surface antigen (TROP-2) (human) (UniProt P09758); test: flow cytometry, surface of Capan-1 cells
[27] = biological target: Human trophoblast cell-surface antigen (TROP-2) (human) (UniProt P09758); test: FACS on COLO 205 cells; background 4.5
[28] = biological target: Human trophoblast cell-surface antigen (TROP-2) (human) (UniProt P09758); test: flow cytometry, surface of NCI-N87 cells
[29] = biological target: Human trophoblast cell-surface antigen (TROP-2) (human) (UniProt P09758); test: FACS on PC-3 cells; background 5.5
[30] = biological target: Human trophoblast cell-surface antigen (TROP-2) (human) (UniProt P09758); test: FACS on COLO 205 cells
[31] = biological target: Human trophoblast cell-surface antigen (TROP-2) (human) (UniProt P09758); test: FACS on Capan-1 cells
[32] = biological target: Human trophoblast cell-surface antigen (TROP-2) (human) (UniProt P09758); test: FACS on BxPC-3 cells
[33] = biological target: Human trophoblast cell-surface antigen (TROP-2) (human) (UniProt P09758); test: FACS on Calu-3 cells; background 4.7

Human trophoblast cell-surface antigen (TROP-2) (human), sequence (P09758 27-323): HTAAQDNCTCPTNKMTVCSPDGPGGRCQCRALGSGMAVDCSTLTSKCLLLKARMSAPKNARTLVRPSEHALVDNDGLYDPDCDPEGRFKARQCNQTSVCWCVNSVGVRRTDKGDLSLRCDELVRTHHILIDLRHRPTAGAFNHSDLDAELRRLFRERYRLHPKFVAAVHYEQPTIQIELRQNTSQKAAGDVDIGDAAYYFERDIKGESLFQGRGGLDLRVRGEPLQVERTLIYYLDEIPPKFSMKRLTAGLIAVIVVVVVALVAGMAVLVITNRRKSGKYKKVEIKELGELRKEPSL

Molecule: Emab-CL2E-SN-38 (antibody)
in vitro cytotoxicity (MTS assay), potency against the nonbinding control conjugate [3]: 2 fold

B1: Milatuzumab (antibody, V domains shown)
VH: QVQLQQSGSELKKPGASVKVSCKASGYTFTNYGVNWIKQAPGQGLQWMGWINPNTGEPTFDDDFKGRFAFSLDTSVSTAYLQISSLKADDTAVYFCSRSRGKNEAWFAYWGQGTLVTVSS
VL: DIQLTQSPLSLPVTLGQPASISCRSSQSLVHRNGNTYLHWFQQRPGQSPRLLIYTVSNRFSGVPDRFSGSGSGTDFTLKISRVEAEDVGVYFCSQSSHVPPTFGAGTRLEIK
MFI Ratio hLL1:bkgd [4]: 1.6
MFI Ratio hLL1:bkgd [5]: 28.5
MFI Ratio hLL1:bkgd [6]: 30.8
MFI Ratio hLL1:bkgd [7]: 28.6
MFI Ratio hLL1:bkgd [8]: 28.8
MFI Ratio hLL1:bkgd [9]: 19.6
MFI Ratio hLL1:bkgd [10]: 1.8
MFI Ratio hLL1:bkgd [11]: 36.7
Kd [1]: 0.77 nM
MFI Ratio hLL1:bkgd [12]: 1.5
MFI Ratio hLL1:bkgd [13]: 49.6
MFI Ratio hLL1:bkgd [14]: 1.3
MFI Ratio hLL1:bkgd [15]: 2.1
MFI Ratio hLL1:bkgd [16]: 5.3
MFI Ratio hLL1:bkgd [17]: 31.2

B3: hRS7-CL2-SN-38 (antibody, INN chains, looked up, V domains shown, part only)
VH: QVQLQQSGSELKKPGASVKVSCKASGYTFTNYGMNWVKQAPGQGLKWMGWINTYTGEPTYTDDFKGRFAFSLDTSVSTAYLQISSLKADDTAVYFCARGGFGSSYWYFDVWGQGSLVTVSS
VL: DIQLTQSPSSLSASVGDRVSITCKASQDVSIAVAWYQQKPGKAPKLLIYSASYRYTGVPDRFSGSGSGTDFTLTISSLQPEDFAVYYCQQHYITPLTFGAGTKVEIK
modifications: SN-38 via CL2 linker
Kd [18]: 1.2 nM

B4: Humanized RS7 IgG (antibody, INN chains, looked up, V domains shown, part only)
VH: QVQLQQSGSELKKPGASVKVSCKASGYTFTNYGMNWVKQAPGQGLKWMGWINTYTGEPTYTDDFKGRFAFSLDTSVSTAYLQISSLKADDTAVYFCARGGFGSSYWYFDVWGQGSLVTVSS
VL: DIQLTQSPSSLSASVGDRVSITCKASQDVSIAVAWYQQKPGKAPKLLIYSASYRYTGVPDRFSGSGSGTDFTLTISSLQPEDFAVYYCQQHYITPLTFGAGTKVEIK
modifications: IgG1
Median fluorescence [20]: 26.4
Percent positive [21]: 91.2%
Median fluorescence [22]: 100
Percent positive [23]: 99.6%
Median fluorescence [24]: 44
Percent positive [25]: 73.6%
MFI [26]: 237
Median fluorescence [27]: 142
MFI [28]: 795
Median fluorescence [29]: 46.2
Percent positive [30]: 99.5%
Percent positive [31]: 94.2%
Percent positive [32]: 98.3%
Median fluorescence [33]: 282

Continued, in another order:

Kd [1]: 0.59 nM
Molecule: milatuzumab-CL2A-SN-38 (antibody)

Kd [1]: 0.8 nM
Molecule: milatuzumab-CL2E-SN-38 (antibody)
in vitro cytotoxicity (MTS assay), potency against free SN-38 in 4 solid tumor cell lines (fold lower potency than free SN-38) [2]: 7 to 16

Kd [18]: 1.2 nM
B2: hRS7-CL2A-SN-38 (antibody, INN chains, looked up, V domains shown, part only)
VH: QVQLQQSGSELKKPGASVKVSCKASGYTFTNYGMNWVKQAPGQGLKWMGWINTYTGEPTYTDDFKGRFAFSLDTSVSTAYLQISSLKADDTAVYFCARGGFGSSYWYFDVWGQGSLVTVSS
VL: DIQLTQSPSSLSASVGDRVSITCKASQDVSIAVAWYQQKPGKAPKLLIYSASYRYTGVPDRFSGSGSGTDFTLTISSLQPEDFAVYYCQQHYITPLTFGAGTKVEIK
modifications: SN-38 via CL2A linker (sacituzumab govitecan)
ADC/free SN-38 ratio (IC50, in vitro cytotoxicity), Calu-3 [19]: 1.39
ADC/free SN-38 ratio (IC50, in vitro cytotoxicity), SK-MES-1 [19]: 2.69
